Measured values: patent publication US20220242957A1 (MARENGO THERAPEUTICS, published 2022)
Changes are numbered by the printed parent chain. Names may count otherwise.

B1: BIM0548 (antibody, human IgG1, lambda)
heavy: EVQLVESGGGLVQPGGSLRLSCAASGFTFSNDEMNWIRQAPGKGLEWVSYISSRSSTIYYADAVKGRFTISRDNARNSLYLQMNSLRAEDTAVYYCARSVDGDGSFDYWGQGTLVTVSSASTKGPSVFPLAPSSKSTSGGTAALGCLVKDYFPEPVTVSWNSGALTSGVHTFPAVLQSSGLYSLSSVVTVPSSSLGTQTYICNVNHKPSNTKVDKRVEPKSCDKTHTCPPCPAPELLGGPSVFLFPPKPKDTLMISRTPEVTCVVVDVSHEDPEVKFNWYVDGVEVHNAKTKPREEQYNSTYRVVSVLTVLHQDWLNGKEYKCKVSNKALPAPIEKTISKAKGQPREPQVCTLPPSREEMTKNQVSLSCAVKGFYPSDIAVEWESNGQPENNYKTTPPVLDSDGSFFLVSKLTVDKSRWQQGNVFSCSVMHEALHNHYTQKSLSLSPGK
light: QLVLTQPPSVSGAPGQRVTISCTGSSSNIGAGYDVHWYQQLPGTAPKLLIYGNSNRPSGVPDRFSGSKSGTSASLAITGLQAEDEADYYCQSYDSSLSEEVFGGGTKLTVLGQPKANPTVTLFPPSSEELQANKATLVCLISDFYPGAVTVAWKADGSPVKAGVETTKPSKQSNNKYAASSYLSLTPEQWKSHRSYSCQVTHEGSTVEKTVAPTECS
chain: not shown
B2: BIM0554 (antibody, human IgG1, lambda)
heavy: not shown
light: SLVLTQPPSVSVAPGKTARITCGGNNIGSKSVHWYQQKPGQAPVLVVYDDSDRPSGIPERFSGSNSGNTATLTISRVEAGDEADYYCQVWDSSSDHVVFGGGTQLTVLGQPKANPTVTLFPPSSEELQANKATLVCLISDFYPGAVTVAWKADGSPVKAGVETTKPSKQSNNKYAASSYLSLTPEQWKSHRSYSCQVTHEGSTVEKTVAPTECS
chain: not shown
B3: BIM0552 (antibody, human IgG1, lambda)
heavy: B1 heavy with S99G, G104F
light: B1 light
chain: not shown
notes: Heavy chain entry ends in X = K or absent; also called multispecific molecule 80; aCSF1R BI117 half-arm antibody
B4: BIM0551 (antibody, human IgG1, lambda)
heavy: B1 heavy with S99N, V100S, G102S, Y108I
light: B1 light
chain: not shown
notes: Half-arm (monovalent) anti-human CSF1R antibody, three chains as BIM0542; Heavy chain entry ends in X = K or absent; also called multispecific molecule 79; aCSF1R BI117 B2-R3B half-arm antibody
B5: BIM0550 (antibody, human IgG1, lambda)
heavy: B1 heavy with R54S, K65T, S99G, G104F
light: B1 light
chain: not shown
notes: Half-arm (monovalent) anti-human CSF1R antibody, three chains as BIM0542; Heavy chain entry ends in X = K or absent; also called multispecific molecule 78; aCSF1R BI117 A11-R3B half-arm antibody
B6: BIM0567 (antibody, human IgG1, lambda)
heavy: B1 heavy with S99G, D101E, G102S, G104F
light: B1 light
chain: not shown
notes: Half-arm (monovalent) anti-human CSF1R antibody, three chains as BIM0542; Heavy chain entry ends in X = K or absent; also called multispecific molecule 86; aCSF1R BI117 D11-R3B half-arm antibody
B7: BIM0553 (antibody, human IgG1, lambda)
heavy: B1 heavy with S99G, G104F, Y108F
light: B1 light
chain: not shown
notes: Half-arm (monovalent) anti-human CSF1R antibody, three chains as BIM0542; Heavy chain entry ends in X = K or absent; also called multispecific molecule 81; aCSF1R BI117 C5-R3B half-arm antibody
B8: BIM0546 (antibody, human IgG1, lambda)
heavy: B1 heavy with S99G, G104F, Y108V
light: B1 light
chain: not shown
notes: Half-arm (monovalent) anti-human CSF1R antibody, three chains as BIM0542; Heavy chain entry ends in X = K or absent; also called multispecific molecule 74; aCSF1R BI117 G1-R2B half-arm antibody
B9: BIM0542 (antibody, human IgG1, lambda)
heavy: B1 heavy with R54G, S99G, G104F
light: B1 light
chain: not shown
notes: Heavy chain entry ends in X = K or absent; also called multispecific molecule 70; aCSF1R BI117 C5-R2A half-arm antibody
B10: BIM0549 (antibody, human IgG1, lambda)
heavy: B1 heavy with V100S, D103S, G104T
light: B1 light
chain: not shown
notes: Half-arm (monovalent) anti-human CSF1R antibody, three chains as BIM0542; Heavy chain entry ends in X = K or absent; also called multispecific molecule 77; aCSF1R BI117 A6-R3B half-arm antibody
B11: BIM0547 (antibody, human IgG1, lambda)
heavy: B1 heavy with S52T, R54K, S99G, G104F
light: B1 light
chain: not shown
notes: Half-arm (monovalent) anti-human CSF1R antibody, three chains as BIM0542; Heavy chain entry ends in X = K or absent; also called multispecific molecule 75; aCSF1R BI117 G12-R2B half-arm antibody
B12: BIM0543 (antibody, human IgG1, lambda)
heavy: B1 heavy with Y50F, S53G, R54G, S99G, G104F
light: B1 light
chain: not shown
notes: Half-arm (monovalent) anti-human CSF1R antibody, three chains as BIM0542; Heavy chain entry ends in X = K or absent; also called multispecific molecule 71; aCSF1R BI117 C9-R2A half-arm antibody
B13: BIM0545 (antibody, human IgG1, lambda)
heavy: B1 heavy with S52T, R54K, A63S, S99G, G104F
light: B1 light
chain: not shown
notes: Half-arm (monovalent) anti-human CSF1R antibody, three chains as BIM0542; Heavy chain entry ends in X = K or absent; also called multispecific molecule 73; aCSF1R BI117 E2-R2B half-arm antibody
B14: BIM0544 (antibody, human IgG1, lambda)
heavy: B1 heavy with S99N, V100S, G102E
light: B1 light
chain: not shown
notes: Half-arm (monovalent) anti-human CSF1R antibody, three chains as BIM0542; Heavy chain entry ends in X = K or absent; also called multispecific molecule 72; aCSF1R BI117 D1-R2A half-arm antibody
B15: BIM0566 (antibody, human IgG1, lambda)
heavy: B1 heavy with V100G, D101R, G102L
light: B1 light
chain: not shown
notes: Half-arm (monovalent) anti-human CSF1R antibody, three chains as BIM0542; Heavy chain entry ends in X = K or absent; also called multispecific molecule 85; aCSF1R BI117 C6-R3B half-arm antibody
B16: BIM0555 (antibody, human IgG1, lambda)
heavy: not shown
light: B2 light
chain: not shown
notes: Half-arm (monovalent) anti-human CSF1R antibody, three chains as BIM0542; Heavy chain entry ends in X = K or absent; also called multispecific molecule 83; aCSF1R BI123 B6-R3B half-arm antibody
B17: BIM0556 (antibody, human IgG1, lambda)
heavy: not shown
light: B2 light
chain: not shown
notes: Half-arm (monovalent) anti-human CSF1R antibody, three chains as BIM0542; Heavy chain entry ends in X = K or absent; also called multispecific molecule 84; aCSF1R BI123 C1-R3B half-arm antibody

Target: T1, human CSF1R (human, UniProt P07333 20-972)
Assay: cell-based or functional assay

T1 sequence (P07333 20-972): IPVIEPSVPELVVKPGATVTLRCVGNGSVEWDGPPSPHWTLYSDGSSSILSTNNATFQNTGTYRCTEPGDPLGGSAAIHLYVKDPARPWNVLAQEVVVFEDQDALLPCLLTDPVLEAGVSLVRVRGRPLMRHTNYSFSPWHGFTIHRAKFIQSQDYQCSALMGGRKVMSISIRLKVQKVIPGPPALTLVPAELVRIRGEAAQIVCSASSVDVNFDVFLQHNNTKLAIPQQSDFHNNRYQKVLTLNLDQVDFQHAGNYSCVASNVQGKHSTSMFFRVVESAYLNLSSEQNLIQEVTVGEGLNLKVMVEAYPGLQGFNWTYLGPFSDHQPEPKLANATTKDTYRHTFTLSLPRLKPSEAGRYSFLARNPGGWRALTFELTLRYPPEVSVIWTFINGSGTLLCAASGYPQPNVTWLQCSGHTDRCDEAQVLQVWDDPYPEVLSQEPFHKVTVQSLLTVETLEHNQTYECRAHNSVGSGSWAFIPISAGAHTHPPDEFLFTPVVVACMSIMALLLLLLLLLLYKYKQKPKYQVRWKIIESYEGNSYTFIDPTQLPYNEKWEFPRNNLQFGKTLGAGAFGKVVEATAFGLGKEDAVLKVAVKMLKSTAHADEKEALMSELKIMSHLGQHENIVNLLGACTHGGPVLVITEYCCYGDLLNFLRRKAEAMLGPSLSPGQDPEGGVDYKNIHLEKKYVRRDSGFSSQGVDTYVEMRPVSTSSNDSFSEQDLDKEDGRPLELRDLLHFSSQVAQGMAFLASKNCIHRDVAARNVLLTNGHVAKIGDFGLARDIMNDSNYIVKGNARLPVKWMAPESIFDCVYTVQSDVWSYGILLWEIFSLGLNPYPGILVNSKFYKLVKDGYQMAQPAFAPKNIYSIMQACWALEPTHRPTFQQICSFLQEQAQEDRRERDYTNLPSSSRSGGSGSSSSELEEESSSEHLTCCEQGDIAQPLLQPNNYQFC

IC50 of reduction of MCP-1 (CCL2) secretion by human monocytes cultured with hCSF-1 (electrochemiluminescence) | Binder
≤ 30 nM | B1
≤ 30 nM | B2

Target: T2, human CSF1R-Fc ECD (human, UniProt P07333 20-517)
T2 construct: extracellular domain; not shown: Fc part of the coated reagent, not described
Assay: ELISA, plate coated with 2 µg/mL human CSF1R, monovalent antibody titrated, anti-human Fc HRP
Protocol: Microplates were separately coated with 2 μg/mL of human or cyno CSF1R in 100 μL and blocked with 2% BSA. Serial dilutions of unlabeled monovalent human antibodies (11 points, 3-fold dilutions, 400 nM to […]) were transferred to the coated and blocked plates at 75 μL/well and incubated for 1 hr at room temperature. Plates were washed three times and incubated for 30 mins with anti-human Fc horseradish peroxidase conjugate followed by addition of TMB, a substrate of HRP. The plates were developed for 5 mins, stopped with 1M HCL and read at a wavelength of 450 nm.

T2 sequence (P07333 20-517): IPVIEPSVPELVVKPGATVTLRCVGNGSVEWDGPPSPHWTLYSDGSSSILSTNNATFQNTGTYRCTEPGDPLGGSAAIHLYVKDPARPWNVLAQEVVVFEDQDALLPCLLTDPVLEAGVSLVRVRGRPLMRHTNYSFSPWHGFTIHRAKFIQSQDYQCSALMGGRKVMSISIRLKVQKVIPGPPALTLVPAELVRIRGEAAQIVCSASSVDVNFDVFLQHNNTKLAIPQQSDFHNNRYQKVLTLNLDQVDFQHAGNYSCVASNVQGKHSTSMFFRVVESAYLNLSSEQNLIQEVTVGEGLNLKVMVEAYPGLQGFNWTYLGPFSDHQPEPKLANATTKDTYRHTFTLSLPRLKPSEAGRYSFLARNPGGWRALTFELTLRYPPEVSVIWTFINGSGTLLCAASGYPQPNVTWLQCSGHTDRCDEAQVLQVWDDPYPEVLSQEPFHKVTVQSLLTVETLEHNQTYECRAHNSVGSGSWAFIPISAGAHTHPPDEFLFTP

binding result | Binder
binds | B3
binds | B4
binds | B5
binds | B6
binds | B7
binds | B8
binds | B9
binds | B10
binds | B11
binds | B12
binds | B13
binds | B14
binds | B15
binds | B16
binds | B17

Target: T1, human CSF1R
Assay: flow cytometry on HEK-293T cells stably transduced with human CSF1R; anti-human Fc APC; percent APC positive
Protocol: HEK-293T cells were lentivirally transduced with human CSF1R and stable cell lines were generated. Nearly all transduced cells expressed high levels of CSF1R. Cells were washed with PBS containing 0.5% BSA and 0.1% sodium azide (staining buffer) and added to 96-well V-bottom plates with 100,000 cells/well. Human anti-CSF1R monovalent antibodies were added to the cells in 2.5 fold serial dilutions and incubated for 2 hour at room temperature. The plates were washed twice with staining buffer. The secondary antibody against human Fc conjugated to APC was added at 1:200 dilution (1.5 mg/ml stock) and incubated with the cells for 1 hour at 4° C. followed by washing with staining buffer. Cells were subsequently stained with a live/dead dye to exclude any dying cells and were fixed for 10 minutes with 4% paraformaldehyde at room temperature. The plates were read on CytoFLEX LS (Beckman Coulter). Data was calculated as the percent-APC positive population.

binding result | Binder
binds | B3
binds | B4
binds | B5
binds | B6
binds | B7
binds | B8
binds | B9
binds | B10
binds | B11
binds | B12
binds | B13
binds | B14
binds | B15
binds | B16
binds | B17
